In the DeepSol protein solubility set:

Experiment: soluble on expression in E. coli; label from the status in PepcDB or PDB records

Row | Sequence | soluble on expression in E. coli
1 | MAEPVRLGRKRPLPVCPNPLFVRWLTEWRDEAASRGRHTRFVFQKALRSLQRYPLPLRSGKEAKILQHFGDRLCRMLDEKLKQHLASGGD | soluble
2 | MSLIYTLTLNPSVDYKIVLKEFQEESLNYALNNNFFAGGKGINVSTVLKNLGKPSTALGFLGGFTGDYIRFSLDSRGIKNDFIKIKYDTRLNIKMIANGRETEINANSPDISENEFELLKNKLKNLANNSTLVMSGSVPAALGEDAYNEIANSISNDVKLIIDTSGKPLRKILRLNPFLIKPNIYELEDLFNAKFDSTKELIKIGKNLVESGVQNIIISMGSDGAIFIGGKNVAFRAFVPKINFVSTIGAGDSVIAGFVYAFDNGSTLEDSFKFGVAAGTATALKGNLCEFQDVKKMLCQIRVEDIYTSEGHHHHHH | soluble
3 | MSDICVIIAAYNAEATIAQAVTSALAEAEVAEVVVVDDASSDATAEAALAASDGSGRLIVERQAQNGGPSAARNRAVALSQAPRIAILDADDFFLPGRFARLDPDLDLAADNIVFVTPEHAARLDPTNLPAAPREVEMLDAERFALGNLAQGVHRGELGFLKPVMSRAFLTRHGLRYDERMWLGEDFDLYMRMLLLGARFGLTRAVGYAAVQRGASLSGRHRTADLAALEACCRAHLEMPASPATQEAMRRHLRQVQAKLLLRQFLDRKAEAGLGAALGFALAPPARFLPIAKGVARDKIAALRPPAPPRAERFLLPVLEHHHHHH | not soluble
4 | MDQSSHHHHHHMDQKQIEEIVRSVMASMGQAAPAPSEAKCATTNCAAPVTSESCALDLGSAEAKAWIGVENPHRADVLTELRRSTVARVCTGRAGPRPRTQALLRFLADHSRSKDTVLKEVPEEWVKAQGLLEVRSEISDKNLYLTRPDMGRRLCAEAVEALKAQCVANPDVQVVISDGLSTDAITVNYEEILPPLMAGLKQAGLKVGTPFFVRYGRVKIEDQIGEILGAKVVILLVGERPGLGQSESLSCYAVYSPRMATTVEADRTCISNIHQGGTPPVEAAAVIVDLAKRMLEQKASGINMTR | soluble
5 | MSLGGTGKVGVILPLLTSPFWQSYNDYVPKMAKSEGVDTLKTVNSNSDPSQQITDINNQLNQGVKGLVVAPLDSAAIEAGLDQADRKGVPVVAVDVAPEKGKVAMVVRADNVAYGEKACQYLGEQVTSGKVVQIMGDLASVNGRDRSEAFRTCVRKNYPKLKVLEIPAKWESDTAASKLDTLLNANPDIKGIYMQAGGVYLAPTLQTLKSKGLLKKTGEKGHITIVSNDGIPQEFDAIRKGQIDATVSQPADAYAKYGMYYIKAAMQGKTFKPGPTDHDSTIVKLPSGILEDQLPAPLVTKDNVDDAKLWGNTEGHHHHHH | soluble
6 | MTVSPSYDAIVIGSGIGGLVTATQLVSKGLKVLVLERYLIPGGSAGYFEREGYRFDVGASMIFGFGDRGTTNLLTRALAAVGQALETLPDPVQIHYHLPGGLDPKVHREYEAFLQELIAKFPQEAQGIRRFYDECWQVFNCLNTMELLSLEEPRYLMRVFFQHPGACLGLVKYLPQNVGDIARRHIQDPDLLKFIDMECYCWSVVPADLTPMINAGMVFSDRHYGGINYPKGGVGQIAESLVAGLEKFGGKIRYGARVTKIIQENNQAIGVELANGEKIYGRRIVSNATRWDTFGALTGDQPLPGKEKRWRRNYQQSPSFLSLHLGVEADLLPEGTECHHILLEDWDDLEKEQGTIFVSIPTLLDPSLAPDGYHIIHTFTPSWLESWQNLSPQEYEAKKEADSGKLIDRLEAIFPGLDRALDYMEIGTPRSHRRFLGRQNGTYGPIPRRRLPGLLPMPFNRTAIPGLYCVGDSTFPGQGLNAVAFSGFACAHRLAVDLGVRLEHHHHHH | not soluble
7 | MGSDKIHHHHHHMEILMLKTFKAVVDEDGIKGAADKLHTVQSNITSRIKKLEKELDTKLFTIIGRKLQLTPSGQQLCEYADQILQLEYQATSAILRNKGTYELRVGMPETFAAVHMPMALKKLKLNHAEIRTKIHTDTSERLVFSVLNNKVDCAAIGNAPKHENLIIIPIVKEELIMVTPRDSEHDPVLFVRDEGCGYRKHALIWQQKAGRGNDELMVMSSADGVLGCIAAGLGYTIIGKNMVAGSRYEKSLVMTPVSHGPKHVQLSIVYRKDSPLESGILTLAKLLTK | not soluble
8 | MDPLVSFFDGMAQASWLRPVHDRLKKGTGSWANRAVLDVGCGTGRLLARGVHEAAHLAGVDLSKQMVLATEERLHEHKQCGRLTVVQGDAYDLPFADESFDVCLSTCVMFLLPEPERGMKEMIRVLNGAGVIGMLNPTNKMNHAAAKAYCKKSGITGFEEKTLLQWSNVSTRRHRYTAEQLTHFFKQHGAWVVTHELVLDGLAVVTVASWNKLEHHHHHH | not soluble
9 | MQIVQIEQAPKDYISDIKIIPSKSLLLITSWDGSLTVYKFDIQAKNVDLLQSLRYKHPLLCCNFIDNTDLQIYVGTVQGEILKVDLIGSPSFQALTNNEANLGICRICKYGDDKLIAASWDGLIEVIDPRNYGDGVIAVKNLNSNNTKVKNKIFTMDTNSSRLIVGMNNSQVQWFRLPLCEDDNGTIEESGLKYQIRDVALLPKEQEGYACSSIDGRVAVEFFDDQGDDYNSSKRFAFRCHRLNLKDTNLAYPVNSIEFSPRHKFLYTAGSDGIISCWNLQTRKKIKNFAKFNEDSVVKIACSDNILCLATSDDTFKTNAAIDQTIELNASSIYIIFDYENLEHHHHHH | soluble
10 | MAQHHGHLGAVYDAAGPQEVAALYDRWAETYESEMARAGYRHPAIGVALLARHLPRGARPLLDAGAGTGLLGEWLEIVGYPEVEALDISAGMLEVARAKGIYARCHNLPLGAALPFRDGAFAGIISTGVFTTGHVGAEALPELLRICRPGGVIVLTVKESLWQGGFAVSLEAAVASGLEHHHHHH | not soluble
11 | MGSDKIHHHHHHMPRYARKRSSTGIYHVMLKGIDGRDIFLDDEDKEKFIENMLKARDKGNFELYAYCLMDNHLHILIKESEGIGTSIKRIAVGYVQWHNNKYGRIGHLFQNRYLSEPVETESYLLTVVKYIHQNPLKARIVTQLADYKWSSYLQYLAAYKGDNSHIDPLLIMEYFKIQTEFESYMNEPTNSECLDYKQSSKYTDEILKNIIRESFGINDLIDMPNDMRNALIKDIYQSTGVSIRQLARVLGIGKSIVERALK | not soluble
12 | MSKKRGLSGEEKRTRMMEIFFETKDVFQLKDLEKLAPKEKGITAMSVKEVLQSLVDDGMVDCERIGTSNYYWAFPSKALHARKRKLEALNSQLSEGSQKHADLQKSIEKARVGRQETEERAMLAKELFSFRDQRQQLKAEVEKYRECDPQVVEEIREANKVAKEAANRWTDNIFAIKSWAKRKFGFEESKIDKNFGIPEDFDYIDMSKSRAEAAAGAPGIILRYLQEQNRPYSAQDVFGNLQKEHGLGKAAVVKALDQLAQEGKIKEKTYGKQKIYFADQNQFDTVSDADLHGLDASIVALTAKVQSLQQSCRHMEAELKELTSALTTPEMQKEIQELKKECAQYTERLKNIKAATNHVTPEEKEKVYRDRQKYCKEWRKRKRMTTELCDAILEGYPKSKKQFFEEVGIETDEDHNVLLPDP | soluble
13 | MKTPVCSEEQGPARDVIAQLLEDALQVESQEQPEQAFVKPHLVSEFDIYGFRTVPDDDEEEKLVAKVRALDLKTLYLTDNQEVSTGVKWENYFASTMNREMACSPELKNLIRAGIPHEHRSKVWKWCVDRHTRKFKDSMEPDYFQTLLQKALEKQNPASKQIELDLLRTLPNNKHYSSPTSEGIQKLRSVLLAFSWRNPDIGYCQGLNRLVAVALLYLDQEDAFWCLVTIVEVFMPRDYYTKTLLGSQVDQRVFRDLLSEKLPRLHTHFEQYKVDYTLITFNWFLVVFVDSVVSDILFKIWDSFLYEGPKVIFRFALALFKYKEEEILKLQDSMSIFKYLRYFTRTILDARKLISISFGDLNPFPLRQIRNRRAYHLEKVRLELTELEAIREDFLRERDTSPDKGELVSDEEEDT | not soluble
14 | MEEKFTPEEQAIYDEHFASDRPVELVEPEQVREAFNAEESSQQPSVEPLQEQPNSGVIEQERQARQKAEQKAMEARELAIEFAQKYAQMQEEAVRRRDENIPTLEDDPKAHVAWLSHKVQEQQKLLDEFSRIRESQERLNQEEYERQKLGDYFEEAKAQVQDKYPDLDSITDYLYERADSVLQAQADLYPQWKDPAARQQQIGAELRQICQQCQKAGINPIEVLVQKAKAFGYSGAPIKDEVETLQERSQAARTLTARGGQVPTGGMDMRTLFSMPDAEFAVWVEKNPEKFEQIMSRT | not soluble
15 | MSDLSSSLCQLNWLIAKGGLNTVQEIEVPENPNIVGSPVAPAHEGKRRRIFDGADKPPYSYSQLIRLAIEDTPDKKCTLAEIYSFIAHNFQFYRENRNSSWKNSIRHNLSLNKQFSRIEKTDGDRRGWWVCVDPPAKKPRILKGSPVRVNPIYEHLYHNKQDMPNFTPPPEDPFLSEINGNVHELTEHEIRDLNLFESYDLNSSFRDVYNQIFEKSTSPNGKKQAAQIDWLKISLEAAGLDYHDEQELQEVDTDKLKDYVYNGFPAECDSDVSTPRTDSGRHSSSDSVLSATLQPVNNDSDDEYDWDKLL | not soluble
16 | VADATTLAVVGPGVMAKTITEACIAERPGITTIKIKGRSERGINAFATWALEKFPEIEVVAVGSEEDVVKDADIVIAATTTDAAGSSAFPYFKKEWLKPGALLLLPAAGRFDDAYLLDDARLVVDYMGLYEAWAEEYGPQAYQLLGIPGTHWYDLALQGKLDLAKISQIGDICSGKLPGRTNDEEIILYSVGG | not soluble
17 | GSHMIVQIGRREEFDKKLLGEMHKLRAQVFKERKGWDVSVIDEMEIDGYDALSPYYMLIQEDGQVFGCWRILDTTGPYMLKNTFPELLHGKEAPCSPHIWELSRFAINSGQKGSLGFSDCTLEAMRALARYSLQNDIQTLVTVTTVGVEKMMIRAGLDVSRFGPHLKIGIERAVALRIELNAKTQIALYGGVLVEQRLAVS | soluble
18 | MFLVDSHCHLDGLDYESLHKDVDDVLAKAAARDVKFCLAVATTLPGYLHMRDLVGERDNVVFSCGVHPLNQNDPYDVEDLRRLAAEEGVVALGETGLDYYYTPETKVRQQESFIHHIQIGRELNKPVIVHTRDARADTLAILREEKVTDCGGVLHCFTEDRETAGKLLDLGFYISFSGIVTFRNAEQLRDAARYVPLDRLLVETDSPYLAPVPHRGKENQPAMVRDVAEYMAVLKGVAVEELAQVTTDNFARLFHIDASRLQSIR | soluble
19 | MDSIIELRHLKTLLALEETGSVSLAAKRVFLTQSALSHQIRMLENHYGTPLFERKSTPLRFTPVGERLLRLAHELIPQVAVAEWDLARITEGEAGELRIAVECHTCFDWLMPAMGEFRPMWPQVELDIVSGFQADPVGLLLQHRADLAIVSEAEKQNGISFQPLFAYEMVGICAPDHPLAAKNVWTAEDFIGETLITYPVPDEMLDLPKKILIPKNINPPRRHSELTIAIIQLVASRRGIAALPYWTVMPYLEKGYVVHRQITADGLQSKLYAAIRTEDTDKSYLNNFCQIIRERGFADLPGLSELEPV | not soluble
20 | YVWDTKMNVGLRVGAAAEFMIGSRGFYLAPGLNYTMKGSKTEWDIPEMVPGTYITMVSTRLHYLQLPINAGMRFDLMNDMAVSIEAGPFLAYGIYGTYRQKLEGWKPNNYSTEFFGPTLGGPTNIRWDIGANIIAAFHYKRYYIQIGYEHGFVDIVSGGGSDIPRLNDNRQSSSTTALREKGNNEYAYNRDFFVGIGYRF | not soluble
21 | MPNCPNCQKPVYFAERVSSLGKDWHRPCLKCANKACGKTLSAGSHSEHEGKPYCNRCYGALFGPKGYGHGGTESHTFLQGTTGN | soluble
22 | MCYIEITKDNIEDNHICCALSTKQYEHAVNEKKRWLKARMDEGLVFYRLHERAKVFIEYLPANEAWVPINAPNFMYINCLWVSGRYKNNGHAKRLLDKCIADAKACGMDGIIHIAGKKKLPYLSDKHFFEHMGFTLQDEAAPYFQLMALTWNGLADSPAFKSQVKSDSINEKGITIYYTAQCPFAVGMINDLRELTEKKGVQFQSIQLSSKEEAQKSPAIWTTFSVFFDGRFVTHEIMSINKFEKLLNTLA | not soluble
